Drawing on the supplement of paper PMC9732359, this text covers protein stability index for 37 sequences.

± gives the uncertainty stated by the source.

This data set can be described thus: protein stability index of a GFP-peptide fusion (yeast GPS) (PSI 1-4); higher = more stable; sorted into four equal gates, so the index is relative within each strain. The gist of the method: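 Yeast carrying a pooled library were grown to mid-log phase in leucine-free medium. Each library plasmid expresses Cherry and has a tiled 17-residue yeast protein peptide fused downstream of GFP. Cells were sorted into four equal gates by GFP/Cherry ratio, and plasmids from each gate were PCR-amplified, Illumina-sequenced and assigned to strains by barcode. Summing, across gates, the read frequency times the gate number gave each peptide's protein stability index.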

Turning to EPTYRLVRYGLAEKVEK [RPS24A], the protein stability index reads like this: (doa10∆) 3.48 ± 0.19; (pdr5∆) 3.42 ± 0.2; (ubr1∆) 3.12 ± 0.19.
EQDALFITRLAQGLLHL [RPN1]: the protein stability index (doa10∆) came to 2.88 ± 0.1, the protein stability index (pdr5∆) amounted to 2.69 ± 0.12, the protein stability index (san1∆) came out at 2.38 ± 0.14 and the protein stability index (ubr1∆) stood at 2.29 ± 0.14.
Consider EQLSKQRDLYKRKEELV [SMC2], for which the protein stability index by setting is: (doa10∆) 2.34 ± 0.15; (pdr5∆) 3.1 ± 0.19; (san1∆) 2.67 ± 0.086; (ubr1∆) 2.73 ± 0.084.
As for EQSNSRKRTRSEAEQID [YCG1], the protein stability index came to 3.35 ± 0.19 (doa10∆), 3.4 ± 0.26 (pdr5∆) and 2.81 ± 0.1 (san1∆).
As for EQTEGEPKKKRGFLGLF [SRP68], the protein stability index reads like this: (doa10∆) 3.1 ± 0.096; (pdr5∆) 3.26 ± 0.11; (san1∆) 2.9 ± 0.064; (ubr1∆) 2.76 ± 0.066.
On to EQVAEEAAAAEEGEEEE [RPS0B], for which the protein stability index (pdr5∆) was 3.33 ± 0.26.
Sequence ERAKNVNGLLQVLMDIN [GAL11] yielded a protein stability index (doa10∆) of 2.94 ± 0.086, a protein stability index (pdr5∆) of 3.15 ± 0.083, a protein stability index (san1∆) of 3.19 ± 0.12 and a protein stability index (ubr1∆) of 2.83 ± 0.04.
In the same order, the values of ERDCVIAYGASQLLLER [RET1] are 1.18 ± 0.058, 1.28 ± 0.057, 1.24 ± 0.14 and 1.11 ± 0.051.
With ERDFYHSLREYINGKAT [RPO31], the protein stability index reads like this: (doa10∆) 2.58 ± 0.044; (pdr5∆) 2.43 ± 0.044; (san1∆) 2.9 ± 0.037; (ubr1∆) 1.75 ± 0.023.
In the same order, the values of ERDSYKLLASTEENKAN [YIL149C/MLP2] are 2.76 ± 0.054, 2.77 ± 0.047, 2.84 ± 0.046 and 3.06 ± 0.034.
In the same order, the values of ERFTKSKTLSLIQSYSL [FAS1] are 2.29 ± 0.063, 2.06 ± 0.043, 1.93 ± 0.11 and 2.06 ± 0.039.
On the same counts, the results for ERGGKFHESGSQYSTMV [RGR1] are 3.36 ± 0.12, 3.45 ± 0.12, 3.44 ± 0.25 and 3.3 ± 0.14.
For ERKKQSDVLRFLQRVRV [RPL15B], the protein stability index by setting is: (doa10∆) 2.08 ± 0.06; (pdr5∆) 2.43 ± 0.062; (san1∆) 2.04 ± 0.066; (ubr1∆) 2.12 ± 0.043.
Regarding ERKLKFSNRFLPVASPF [FAS1], the protein stability index by setting is: (doa10∆) 3.02 ± 0.12; (pdr5∆) 3.16 ± 0.11; (san1∆) 2.91 ± 0.094; (ubr1∆) 2.85 ± 0.099.
In the same order, the values of ERKRKSVRGAIVGPDLA [RPS6A] are 3.38 ± 0.091, 3.34 ± 0.075, 3.33 ± 0.055 and 3.01 ± 0.13.
In the same order, the values of ERLDKDKDRDTRRKRRQ [SNF5] are 2.82 ± 0.13, 3.27 ± 0.21, 2.9 ± 0.11 and 3.46 ± 0.13.
As to ERLVEFSNVNELQEKNV [YIL149C/MLP2], the protein stability index turned out to be 3.31 ± 0.23 (doa10∆), 3.36 ± 0.24 (pdr5∆) and 3.1 ± 0.2 (ubr1∆).
Regarding ERQMNFLTNELIRLQME [SWI3], the protein stability index reads like this: (doa10∆) 3.07 ± 0.11; (pdr5∆) 3.12 ± 0.072; (san1∆) 3.22 ± 0.048; (ubr1∆) 3.09 ± 0.069.
In the case of ERSYPSEFANQNQGGAQ [ROX3], the protein stability index is, setting by setting: (doa10∆) 2.98 ± 0.083; (pdr5∆) 3.07 ± 0.092; (san1∆) 2.96 ± 0.066; (ubr1∆) 3.17 ± 0.061.
In the same order, the values of ERVPKTQLDKLRPRKDS [SMB1] are 3.1 ± 0.051, 3.07 ± 0.062, 3.09 ± 0.032 and 3.17 ± 0.045.
Turning to ERVTALKNCKISNINIP [SMC1], the protein stability index (doa10∆) came out at 3.25 ± 0.1, the protein stability index (pdr5∆) is 3.25 ± 0.12, the protein stability index (san1∆) was found to be 3.1 ± 0.066 and the protein stability index (ubr1∆) came out at 3.41 ± 0.11.
On the same counts, the results for ERYFDCCTKFFTMMTSE [PCI8] are 2.38 ± 0.059, 2.44 ± 0.071, 2.35 ± 0.07 and 2.29 ± 0.045.
In the same order, the values of ESDGRMFIEEPTRMVRV [SRP54] are 2.77 ± 0.082, 2.99 ± 0.11, 2.83 ± 0.099 and 2.73 ± 0.054.
On the same counts, the results for ESEEAETKDIRKQIQLL [SRB4] are 2.53 ± 0.081, 2.94 ± 0.086, 2.5 ± 0.062 and 2.71 ± 0.075.
As for ESFTEELSNELSRLSTA [MED1], the protein stability index runs as follows: (doa10∆) 3.25 ± 0.066; (pdr5∆) 3.12 ± 0.066; (san1∆) 3.05 ± 0.053; (ubr1∆) 3.21 ± 0.034.
Consider ESITKAMEFIFGNSLIC [SMC2], for which the protein stability index stood at 2.46 ± 0.071 (doa10∆), 1.55 ± 0.066 (pdr5∆), 1.39 ± 0.092 (san1∆) and 1.89 ± 0.046 (ubr1∆).
On the same counts, the results for ESITYQKIMILQRTILN [RGR1] are 1.61 ± 0.069, 1.69 ± 0.06, 1.49 ± 0.099 and 2.06 ± 0.065.
ESLILKWDNQSASRAKN [RGR1] yielded a protein stability index (doa10∆) of 3.16 ± 0.05, a protein stability index (pdr5∆) of 3.24 ± 0.055, a protein stability index (san1∆) of 2.9 ± 0.05 and a protein stability index (ubr1∆) of 3.09 ± 0.052.
On the same counts, the results for ESLREIPYGPDFDNIEF [SEC65] are 3.1 ± 0.072, 3.12 ± 0.067, 2.92 ± 0.087 and 3.04 ± 0.057.
In the same order, the values of ESLYDLIEFQPSQGVHY [MED6] are 2.84 ± 0.078, 2.87 ± 0.061, 2.91 ± 0.051 and 2.7 ± 0.051.
In the same order, the values of ESMLHLSIWIKNYPEYF [IRR1] are 2.17 ± 0.046, 2.06 ± 0.038, 2.25 ± 0.061 and 2.2 ± 0.043.
On to ESMSYLPDPILKNFLSY [MCD1], for which the protein stability index is 2.34 ± 0.13 (doa10∆), 2.79 ± 0.12 (pdr5∆), 2.5 ± 0.14 (san1∆) and 2.51 ± 0.098 (ubr1∆).
In the case of ESNRQSVIVDSKVTVPP [ESC2], the protein stability index reads like this: (doa10∆) 2.47 ± 0.11; (pdr5∆) 2.87 ± 0.082; (san1∆) 2.81 ± 0.079; (ubr1∆) 2.81 ± 0.048.
In the same order, the values of ESSFIEIDDTEAEVTAE [BRR2] are 3.01 ± 0.068, 3.1 ± 0.088, 2.98 ± 0.11 and 3.06 ± 0.052.
Take ESSLTISLYFNDILDEL [ECM29]: the protein stability index is, setting by setting: (doa10∆) 1.89 ± 0.06; (pdr5∆) 2.25 ± 0.051; (san1∆) 2.38 ± 0.07; (ubr1∆) 2.4 ± 0.061.
For ESSYTEVTKLLKNEGID [SMC4], the protein stability index is 3.1 ± 0.082 (doa10∆), 3.17 ± 0.15 (pdr5∆) and 3.49 ± 0.098 (ubr1∆).
As to ESTAGSASTSATGISGS [ECM29], the protein stability index amounted to 3.31 ± 0.046 (doa10∆), 3.35 ± 0.053 (pdr5∆), 3.12 ± 0.035 (san1∆) and 3.277 ± 0.032 (ubr1∆).
